T1: MAdCAM (analyte of the BIAcore experiment) (UniProt Q13477 19-317)
T1 construct: The antibodies are called anti-hMAdCAM; also called Mucosal addressin cell adhesion molecule
T1 sequence (looked up): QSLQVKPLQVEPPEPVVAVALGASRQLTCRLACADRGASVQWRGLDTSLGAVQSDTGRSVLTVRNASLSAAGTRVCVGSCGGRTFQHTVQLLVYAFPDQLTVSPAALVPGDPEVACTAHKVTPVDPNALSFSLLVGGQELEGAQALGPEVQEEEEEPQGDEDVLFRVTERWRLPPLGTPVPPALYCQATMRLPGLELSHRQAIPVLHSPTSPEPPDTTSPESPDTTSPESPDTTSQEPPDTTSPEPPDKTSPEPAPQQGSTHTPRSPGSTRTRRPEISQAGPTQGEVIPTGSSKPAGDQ

B1: 6.22.2 (antibody, V domains shown)
VH: QVQLVESGGGVVQPGRSLRLSCAASGHTFSSDGMHWVRQAPGKGLEWVAIIWYDGSNKYYADSVKGRFTISRDNSKNTLYLQMNSLRAEDTAVYYCARDPGYYYGMDVWGQGTTVTVSS
VL: EIVLTQSPDFQSVTPKEKVTITCRASQRIGSSLHWYQQKPDQSPKLLIKYASQSFSGVPSRFSGSGSGTNFTLTINGLEAEDAATYYCHQSGRLPLTFGGGTKVEIKR
B2: 6.22.2-mod_V (antibody, human IgG2, kappa, V domains shown)
VH: QVQLVESGGGVVQPGRSLRLSCAASGFTFSSDGMHWVRQAPGKGLEWVAVIWYDGSNKYYADSVKGRFTISRDNSKNTLYLQMNSLRAEDTAVYYCARDPGYYYGMDVWGQGTTVTVSS
VL: EIVLTQSPDFQSVTPKEKVTITCRASQRIGSSLHWYQQKPDQSPKLLIKYASQSFSGVPSRFSGSGSGTDFTLTINSLEAEDAATYYCHQSGRLPLTFGGGTKVEIKR
notes: Purified recombinant antibody
B3: 7.16.6_L (antibody, V domains shown)
VH: QVQLVQSGAEVKKPGASVKVSCKASGYTFTSYGINWVRQAPGQGLEWMGWISVYSGNTNYAQKLQGRVTMTADTSTSTAYMDLRSLRSDDTAVYYCAREGSSSSGDYYYGMDVWGQGTTVTVSS
VL: DIVMTQTPLSLSVTPGQPASISCKSSQSLLHTDGTTYLYWYLQKPGQPPQLLIYEVSNRFSGVPDRFSGSGSGTDFTLKISRVEAEDVGIYYCMQNIQLPWTFGQGTKVEIKR
notes: The light chain is the parent 7.16.6 kappa chain, rebuilt as for m1; also called 7.16.6_L variant
B4: 7.16.6_LVS (antibody, human IgG2, kappa, V domains shown)
VH: QVQLVQSGAEVKKPGASVKVSCKASGYTFTSYGINWVRQAPGQGLEWMGWISVYSGNTNYAQKLQGRVTMTADTSTSTAYMDLRSLRSDDTAVYYCAREGSSSSGDYYYGMDVWGQGTTVTVSS
VL: DIVMTQTPLSLSVTPGQPASISCKSSQSLLHTDGTTYLYWYLQKPGQPPQLLIYEVSNRFSGVPDRFSGSGSGTDFTLKISRVEAEDVGVYYCMQSIQLPWTFGQGTKVEIKR
notes: Recombinant, from transiently transfected FreeStyle HEK293 cells
B5: 7.16.6_S (antibody, human IgG2, kappa, V domains shown)
VH: QVQLVQSGAEVKKPGASVKVSCKASGYTFTSYGINWVRQAPGQGLEWMGWISVYSGNTNYAQKVQGRVTMTADTSTSTAYMDLRSLRSDDTAVYYCAREGSSSSGDYYYGMDVWGQGTTVTVSS
VL: DIVMTQTPLSLSVTPGQPASISCKSSQSLLHTDGTTYLYWYLQKPGQPPQLLIYEVSNRFSGVPDRFSGSGSGTDFTLKISRVEAEDVGIYYCMQSIQLPWTFGQGTKVEIKR
notes: Recombinant, from transiently transfected FreeStyle HEK293 cells; also called 7.16.6-5; 7.16.6_5
B6: 7.16.6_VS (antibody, human IgG2, kappa, V domains shown)
VH: QVQLVQSGAEVKKPGASVKVSCKASGYTFTSYGINWVRQAPGQGLEWMGWISVYSGNTNYAQKVQGRVTMTADTSTSTAYMDLRSLRSDDTAVYYCAREGSSSSGDYYYGMDVWGQGTTVTVSS
VL: DIVMTQTPLSLSVTPGQPASISCKSSQSLLHTDGTTYLYWYLQKPGQPPQLLIYEVSNRFSGVPDRFSGSGSGTDFTLKISRVEAEDVGVYYCMQSIQLPWTFGQGTKVEIKR
notes: Recombinant, from transiently transfected FreeStyle HEK293 cells; also called 7.16.6_VS adduct
B7: 7.16.6_V (antibody, human IgG2, kappa, V domains shown)
VH: QVQLVQSGAEVKKPGASVKVSCKASGYTFTSYGINWVRQAPGQGLEWMGWISVYSGNTNYAQKVQGRVTMTADTSTSTAYMDLRSLRSDDTAVYYCAREGSSSSGDYYYGMDVWGQGTTVTVSS
VL: DIVMTQTPLSLSVTPGQPASISCKSSQSLLHTDGTTYLYWYLQKPGQPPQLLIYEVSNRFSGVPDRFSGSGSGTDFTLKISRVEAEDVGVYYCMQNIQLPWTFGQGTKVEIKR
notes: Recombinant, from transiently transfected FreeStyle HEK293 cells; also called 7.16.6_V adduct
B8: 6.67.1 (antibody, V domains shown)
VH: QVQLQESGPGLVKPSETLSLTCTVSGDSISSNYWSWIRQPAGKGLEWIGRIYTSGGTNSNPSLRGRVTILADTSKNQFSLKLSSVTAADTAVYYCARDRITIIRGLIPSFFDYWGQGTLVTVSS
VL: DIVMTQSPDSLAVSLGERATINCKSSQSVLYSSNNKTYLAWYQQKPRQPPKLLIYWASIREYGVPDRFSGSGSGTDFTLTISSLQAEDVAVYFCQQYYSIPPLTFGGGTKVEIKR
B9: 6.67.1-mod_Y (antibody, V domains shown)
VH: QVQLQESGPGLVKPSETLSLTCTVSGDSISSNYWSWIRQPAGKGLEWIGRIYTSGGTNSNPSLRGRVTMSVDTSKNQFSLKLSSVTAADTAVYYCARDRITIIRGLIPSFFDYWGQGTLVTVSS
VL: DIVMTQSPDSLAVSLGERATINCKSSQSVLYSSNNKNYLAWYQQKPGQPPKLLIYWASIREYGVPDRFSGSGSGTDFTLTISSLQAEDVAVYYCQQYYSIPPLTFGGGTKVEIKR
B10: 6.77.1-mod_ΔS (antibody, human IgG2, kappa, V domains shown)
VH: EVQLVESGGGLVKPGGSLRLSCAASGFTFSSYSMNWVRQAPGKGLEWVSSISSSSSYIYYADSVKGRFTISRDNAKNSLYLQMNSLRAEDTAVYYCARDGYSSGWYYYYYGMDVWGQGTTVTVSS
VL: DIVMTQTPLSLSVTPGQPASISCKSSQSLLLSDGKTYLNWYLQKPGQPPQLLIYEVSNRFSGVPDRFSGSGSGTDFTLKISRVEAEDVGVYSCMQSIQLMSSFGQGTKLEIKR
notes: Purified recombinant antibody; also called 6.77.1-mod_ΔAS
B11: 9.8.2-mod_ΔRGAYH,D (antibody, human IgG4, kappa, V domains shown)
VH: QVQLVESGGGVVQPGRSLRLSCAASGFTFSSYGMHWVRQAPGKGLEWVAVIWYDGSNEYYADSVKGRFTISRDNSKNTLYLQMNSLRAEDTAVYYCAFDYWGQGTLVTVSS
VL: DIQMTQSPSSLSASVGDRVTITCQASQDISNYLNWYQQKPGKAPKLLIYDASNLETGVPSRFSGSGSGTDFTFTISSLQPEDIATYSCQHSDNLITFGQGTRLEIKR
notes: Purified recombinant antibody; The heavy-chain constant region as printed is IgG4-like; also called 9.8.2_ΔRGAYH,D
B12: 6.34.2 (antibody, V domains shown)
VH: QVQLVESGGGVVQPGRSLRLSCAASGFTFSSYGMHWVRQAPGKGLEWVAVISNDGNNKYYADSVKGRFTISRDNSKNTLYLQMNSLSAEDTAVYYCARDSTAITYYYYGMDVWGQGTTVTVSS
VL: DIQMTQSPSSLSASVGDRVTITCRASQNISSYLNWFQQKPGKAPKLLIYAASGLKRGVPSRFSGSGSGTDFTLTIRTLQPDDFATYSCHQSYSLPFTFGPGTKVDIKR
B13: 6.34.2-mod_SSQ (antibody, human IgG2, kappa, V domains shown)
VH: QVQLVESGGGVVQPGRSLRLSCAASGFTFSSYGMHWVRQAPGKGLEWVAVISNDGNNKYYADSVKGRFTISRDNSKNTLYLQMNSLRAEDTAVYYCARDSTAITYYYYGMDVWGQGTTVTVSS
VL: DIQMTQSPSSLSASVGDRVTITCRASQSISSYLNWYQQKPGKAPKLLIYAASSLSQGVPSRFSGSGSGTDFTLTISSLQPEDFATYYCHQSYSLPFTFGPGTKVDIKR
notes: Purified recombinant antibody

Key:
[1] = target: T2, MAdCAM-IgG1 Fc fusion protein; assay: MAdCAM-IgG1 Fc fusion: JY cell binding assay (inhibition of JY cell adhesion)
T2 construct: Made in CHO-DHFR cells and coated on plates at 4.5 µg/mL

[2] = target: T1, MAdCAM (analyte of the BIAcore …); assay: BIAcore (SPR); antibody immobilised, MAdCAM injected
[3] = target: T2, MAdCAM-IgG1 Fc fusion protein; assay: inhibition of adhesion of calcein-loaded JY cells to plate-coated MAdCAM-IgG1 Fc fusion (fluorescence)
Method: The cells were washed twice with RPMI 1640 media (Gibco) containing 2 mM L-glutamine (Gibco) by centrifugation (240 g), resuspending the final cell pellet at 2×10⁶ cells/mL in RPMI 1640 for Calcein AM loading. Calcein AM (Molecular Probes #C-3099) was added to the cells as a 1:200 dilution in DMSO (ca. final concentration 5 μM) and the cells protected from light during the course of the incubation (37° C. for 30 min). During this cell incubation step the antibodies to be tested, were diluted as follows: for single dose testing, the antibodies were made up to 3 μg/mL (1 μg/mL final) in 0.1 mg/mL BSA (Sigma#A3059) in PBS; for full IC₅₀ curves, the antibodies were diluted in 0.1 mg/mL BSA/PBS, with 3 μg/mL (1 μg/mL final) being the top concentration, then doubling dilutions (1:2 ratio) across the plate. The final well of the row was used for determining total binding, so 0.1 mg/ml BSA in PBS was used.
After blocking, the plate contents were flicked out and 50 μL of antibodies/controls were added to each well and the plate incubated at 37° C. for 20 min. During this time, Calcein-loaded JY cells were washed once with RPMI 1640 media containing 10% fetal bovine serum and once with 1 mg/mL BSA/PBS by centrifugation, resuspending the final cell pellet to 1×10⁶/mL in 1 mg/mL BSA/PBS. 100 μL of cells were added to each well of the U bottomed plate, the plate sealed, briefly centrifuged (1000 rpm for 2 min) and the plate then incubated at 37° C. for 45 min. At the end of this time, the plates were washed with a Skatron plate washer and fluorescence measured using a Wallac Victor² 1420 Multilabel Reader (excitation λ485 nm, emission λ535 nm count from top, 8 mm from bottom of plate, for 0.1 sec with normal emission aperture). For each antibody concentration, percent adhesion was expressed as a percentage of maximal fluorescence response in the absence of any antibody minus fluorescence associated with non-specific binding. The IC₅₀ value is defined as the anti-MAdCAM antibody concentration at which the adhesion response is decreased to 50% of the response in the absence of anti-MAdCAM antibody. Antibodies that were able to inhibit the binding of JY cells to MAdCAM-IgG₁ Fc fusion with an IC₅₀ value <0.1 μg/mL, were considered to have potent antagonist activity and were progressed to the MAdCAM-CHO adhesion assay.
Target sequence in this assay (chain, as listed by the source limits assumed): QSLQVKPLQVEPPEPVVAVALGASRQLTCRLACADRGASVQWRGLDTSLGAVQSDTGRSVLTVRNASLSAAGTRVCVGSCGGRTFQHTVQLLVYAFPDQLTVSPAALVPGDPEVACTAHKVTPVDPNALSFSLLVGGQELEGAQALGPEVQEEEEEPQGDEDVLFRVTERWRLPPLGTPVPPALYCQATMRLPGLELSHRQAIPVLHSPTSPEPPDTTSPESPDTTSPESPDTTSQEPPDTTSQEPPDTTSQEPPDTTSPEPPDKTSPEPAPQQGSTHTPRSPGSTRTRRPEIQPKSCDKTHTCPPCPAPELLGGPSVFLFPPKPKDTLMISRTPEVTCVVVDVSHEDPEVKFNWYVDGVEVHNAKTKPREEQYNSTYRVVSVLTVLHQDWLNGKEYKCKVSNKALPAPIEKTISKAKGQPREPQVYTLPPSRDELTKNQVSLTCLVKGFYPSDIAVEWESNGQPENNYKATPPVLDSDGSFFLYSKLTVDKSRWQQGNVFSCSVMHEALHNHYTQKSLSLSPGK

[4] = target: T1, MAdCAM (analyte of the BIAcore …); assay: BIAcore (SPR); antibody immobilised, MAdCAM injected; footnote: below the instrument's lower limit of 5 × 10^-6 s^-1
[5] = target: T1, MAdCAM (analyte of the BIAcore …); assay: BIAcore (SPR); KD restated from the instrument's off-rate limit; the footnote says 7.16.6_V, but the ka used and the asterisk belong to 7.16.6_S; KD bound restated from the BIAcore off-rate limit (5 × 10^-6 s^-1), not the fitted 23.2 pM

Binder | IC50 [1] [µg/mL] | Kd [2] [nM] | koff [2] [s⁻¹] | kon [2] [M⁻¹ s⁻¹] | IC50 [3] [µg/mL] | also measured
B1 | 0.018 | – | – | – | – | –
B2 | 0.076 | – | – | – | – | –
B3 | – | 0.0795 | 1.21e-05 | 152000 | 0.0356 | –
B4 | – | 0.119 | 2.31e-05 | 194000 | 0.0458 | –
B5 | – | 0.0232 | – | 183000 | 0.0342 | koff [4]: 4.27e-06 s⁻¹; Kd [5]: < 0.0273 nM
B6 | – | 0.0908 | 2.18e-05 | 240000 | 0.0582 | –
B7 | – | 0.162 | 2.49e-05 | 153000 | 0.0412 | –
B8 | 0.013 | – | – | – | – | –
B9 | 0.063 | – | – | – | – | –
B10 | 0.0485 | – | – | – | – | –
B11 | 0.072 | – | – | – | – | –
B12 | 0.013 | – | – | – | – | –
B13 | 0.086 | – | – | – | – | –
